Results taken from patent US20220242941A1 (NOVOBIND LIVESTOCK THERAPEUTICS, published 2022).
Substitutions are numbered along the chain they refer to.

T1: Eimeria maxima MIC2 (Eimeria maxima)
T1 construct: Recombinant antigen coated on ELISA wells; also called EmMIC2
T1 chain: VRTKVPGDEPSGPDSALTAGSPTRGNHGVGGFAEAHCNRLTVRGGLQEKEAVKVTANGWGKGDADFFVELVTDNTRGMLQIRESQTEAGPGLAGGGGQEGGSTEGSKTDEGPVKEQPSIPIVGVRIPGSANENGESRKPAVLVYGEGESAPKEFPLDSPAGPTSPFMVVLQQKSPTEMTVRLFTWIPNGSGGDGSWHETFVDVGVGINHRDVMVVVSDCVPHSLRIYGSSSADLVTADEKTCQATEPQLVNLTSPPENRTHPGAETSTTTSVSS

B1: NBX0707 (VHH)
VHH: QVQLQESGGGLVQAGGSLRLSCAASGSIFSRDTMAWYRQVPGEQRELVAFITNFGGTNHADSVKGRFTISRDNAKNTVYLQMNSLKPEDTAVYYCAAGLVSLRTHTWEYWGQGTQVTVSS
B2: NBX0709 (VHH)
VHH: B1 VHH with F50Y, R103H
B3: NBX0714 (VHH)
VHH: B1 VHH with F50Y, D61G, G98E
B4: NBX0731 (VHH)
VHH: B1 VHH with A14P, L20V, S27F, I28T, F50Y
B5: NBX0734 (VHH)
VHH: B1 VHH with F50Y, D89E
B6: NBX0752 (VHH)
VHH: B1 VHH with T33N, F50L, R103L
B7: NBX0716 (VHH)
VHH: QVQLQESGGGLVQAGGSLSLSCTASGRTFSTFPVAWFRQAPGKEREFVARINWFTTDTYYADSVKGRFTISRDSAKNTVYLQMNALKPEDTAIYYCAAARSNTGTSRFDYWGQGTQVTVSS
B8: NBX0717 (VHH)
VHH: QVQLQESGGGLVQAGGSLRLSCAASTNIATFTTMGWYRQAPGKERELVATTTPWGATTSYADSVKGRFTISNDNAKNTVNLQMNSLKPEDTAVYYCNAQQDIPTTQTYWGQGTQVTVSS
B9: NBX0718 (VHH)
VHH: QVQLQESGGGLVQAGGSLRLSCAANGRTFSSYAMAWFRQAPGKEREFVAAVGWSGGRTYYTDSVKGRFTISRDNAKDTVYLQMNSLKPEDTAVYYCAATRGWAQATLLYDYDYWGQGTQVTVSS
B10: NBX0713 (VHH)
VHH: QVQLQESGGGLVQPGGSLRLSCAASGRTFRRNAMGWFRQAPGKAREFVATISWSGNRAYSDSVKGRFTISRDNGKNLVSLQMNSLKPEDTAVYYCAAARERITSTYYTPHVLTDYDAWGQGAQVTVSS
B11: NBX0712 (VHH)
VHH: B10 VHH with P14T, R30T, T50V, R101A
B12: NBX0715 (VHH)
VHH: B10 VHH with E6Q, P14A, R30S, G74E, Q81H
B13: NBX0732 (VHH)
VHH: B10 VHH with P14T, S52T, G74E, D114E
B14: NBX0711 (VHH)
VHH: QVQLQQSGGGLVQPGGSLRLSCAASRSIRSADAMAWYRQAPGKQRVWVATITSGGSTYYTDSVKGRFTISRDNAKSTVYLQMSSLKPEDTAVYYCNAVGDRTSYWGQGTQVTVAS
B15: NBX0733 (VHH)
VHH: QVQLQQSGGGLVQPGGSLRLSCAASGSIFSVDAMAWYRQAPGKQREWVATFTKGGSTYYAGSVKGRFTISRDNAKNTVYLQMSSLKPEDTAVYYCNAVGDRTGAWGQGTQVTVAS
B16: NBX0708 (VHH)
VHH: QVQLQESGGGLVQAGDSLSLSCVDSKRTADRYVMHWFRQVPGKDREFVAAISGNGLVRNYADSVKGRFTISRDNAKNMVYLQMKSLKPEDTAVYYCAADFVLDSRWRYVPYWGQGTQVTVSS
B17: NBX0740 (VHH)
VHH: QVQLQESGGGLVQAGGSLRLSCAASGRTFVNYNMGWFRQAPGKEREFVATINWSGGSTYYAGSVKGRFTISRDSAKNTVYLQMNKLKPEDTAVYYCAAEVGYGYQGPPLTTPSMYDYWGQGTQVTVST
B18: NBX0750 (VHH)
VHH: QVQLQESGGGLVQPGDSLRLSCAPSGRTFSGYVTGWFRQAPGMEREFVAAITWSGDSTYYADSVKGRFQISRDSAKNTVYLQMNSLKPEDAGVYYCAVKSQTYSTDYVQPRRYAYWGQGTQVTVSS
B19: NBX0751 (VHH)
VHH: QVQLQESGGGLVQPGGSLRLSCAVSGTIFSITPMGWYRQAPGKQRELVASISGGGSTNYTDPVKGRFTISRDKARNTVYLQMNNLKPEDTAVYYCNAASLAIVRGINNYWGQGTQVTVSS
B20: NBX0710 (VHH)
VHH: QVQLQESGGGLVQAGGSLRLSCAASGSIFSINAMGWYRQAPGKQRELVAGITSGGSTNYADSVKGRFTISRDNAKNTVYLQMNSLKPEDTAVYYCAADYVGLGDDAFYVPYWGQGTQVTVSA
B21: NBX16033 (VHH)
VHH: QVQLQESGGGTVQAGGSLRLSCAVSGSTFSSYSMNWYRQGPGNQREWVGGIRSNDSTYYADSVKGRFTISRDNAKNAWNLQMNSLKSEDTAVYYCNFWDGSFNQYWGQGTQVTVSA
B22: NBX16034 (VHH)
VHH: QVQLQESGGGVVQAGGSLRLSCVASGSDTSVYAMRWWRQVPGKERLLLASITSGGTVRYAESVKGRFTISRDDAKNTLYLQMNSLKTEDTAVYLCNAERVLARQNYWGQGTQVTVSS
B23: NBX16035 (VHH)
VHH: QVQLQESGGGLVQAGGSLRLSCAASGSIFSINVIGWYRQVPGKERELVANSGSTTKYADSVKGRFTISRDNAKNTVDLQMNSLKPEDTAVYYCNAVVTSRTSLGLRSYVYWGQGTQVTVSS
B24: NBX16037 (VHH)
VHH: B23 VHH with E6Q, N50K, G52D, S53R, L103Q, V109A
B25: NBX16041 (VHH)
VHH: B23 VHH with V40A, V109A
B26: NBX16036 (VHH)
VHH: QVQLQESGGGLVQAGGSLRLSCVALGNIGWINDMGWYRQAPGKERELVARISSAEATNYADAVKGRFTISRDDAKNTVYLQMNSLKPEDTAVYSCHTRRWYDDGYDYDTWGQGTQVTVSS
B27: NBX16038 (VHH)
VHH: QVQLQQSGGGLVQSGGSLRLSCTATRSTISGYGGRWYRQAPGKQREFVALLSSGGMTRYADSVMGRFTISRDDIKNTLYLQMNTLKPEDTAVYYCNTFDGAWGQGTQVTVSS
B28: NBX16039 (VHH)
VHH: QVQLQQSGGGLVQAGGSLRLSCTTSGIIFSFSLLNVGWYRQAPGKERELVARMSTAGNTYYSTSVKDRFTISRDNGKNTVDLQMNSLNADDTAVYYCNLRRSWAPSDSGFWGQGTQVFVSS
B29: NBX16040 (VHH)
VHH: QVQLQESGGGMVQAGGSLRLSCAASGTTITINTMRWYRQPPGKERELVASIVPSGKTYYADSVKGRFTISRDNHKNTMYLQMNSLKPEDTAVYYCNSDGRFRGIGTYWGQGTQVTVSS
B30: NBX16042 (VHH)
VHH: QVQLQESGGGLVQAGGSLRLSCVASGITFNFNYYVMGWYRQAPGKQRELVARISDGGNTNYADSVKGRFTISRDNTKNTGYLQMNSLKPEDTAIYYCNLRRSWAPADNGHWGQGTQVTVSS
B31: NBX16043 (VHH)
VHH: QVQLQESGGGLVQAGGSLRLSCAASGIAFSMFDMVWYRQAPGKQRELVASVSDGGSTAYADSVKGRFTISRDNAKKMVYLQMNSLKPEDTAVYYCKAARSWAYGSGYWGQGIQVTVSS
B32: NBX17019 (VHH)
VHH: QVQLQESGGGLVQAGGSLRLSCTGPGSTFSSYAVGWYRQAPGGNREWVASISSSGEITRYADSVTGRFTISRDNAKNTVDLQMNSLRPEDTAVYYCAIGTMARGKGTLVTVSS
B33: NBX17020 (VHH)
VHH: QVQLQQSGGGLVQAGGSLRLSCAGSGRPFGSYVMGWYRQAPGEQREMVARMTSAGSGGVADYGESVKGRFAISRDYAKNMVFLQMNSLKPEDTAVYYCWSALGYWGQGTQVTVSS

Biological target: T1, Eimeria maxima MIC2
Assay: phage ELISA, antigen-coated wells;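 further: antigen dissolved in PBS and coated onto wells, with negative-control wells holding PBS alone as the reference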
Excerpt: Black bars show binding to wells coated with the antigen specified in Tables 1 and 2 dissolved in phosphate-buffered saline (PBS). Grey bars are negative controls that show binding to wells coated with PBS only.

| Binder | binding relative to PBS-coated wells [times] |
| --- | --- |
| B1 | 4 |
| B2 | ≥ 4 |
| B3 | ≥ 4 |
| B4 | ≥ 4 |
| B5 | ≥ 4 |
| B6 | ≥ 4 |
| B7 | ≥ 4 |
| B8 | ≥ 4 |
| B9 | ≥ 4 |
| B10 | ≥ 4 |
| B11 | ≥ 4 |
| B12 | ≥ 4 |
| B13 | ≥ 4 |
| B14 | ≥ 4 |
| B15 | ≥ 4 |
| B16 | ≥ 4 |
| B17 | ≥ 4 |
| B18 | ≥ 4 |
| B19 | ≥ 4 |
| B20 | ≥ 4 |

Biological target: T2, GST fusion of the EtAMA1-binding peptide of EtRON2 (Eimeria tenella, UniProt P08515 1-218 = GST)
T2 construct: Expressed in E. coli, purified as the other antigens but without TEV cleavage, so a His tag and TEV site probably remain; also called GST-RON2 peptide
Assay: phage ELISA, wells coated with GST-RON2 peptide

T2 sequence (P08515 1-218, tags or fused parts left off): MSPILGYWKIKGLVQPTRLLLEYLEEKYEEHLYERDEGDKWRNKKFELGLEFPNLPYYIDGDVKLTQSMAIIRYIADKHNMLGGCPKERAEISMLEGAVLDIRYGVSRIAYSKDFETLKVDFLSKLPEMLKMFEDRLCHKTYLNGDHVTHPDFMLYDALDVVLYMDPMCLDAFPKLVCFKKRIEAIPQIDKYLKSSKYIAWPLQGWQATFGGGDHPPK

| Binder | binding relative to GST-coated wells [times] | binding relative to PBS-coated wells [times] |
| --- | --- | --- |
| B21 | ≥ 3 | ≥ 4 |
| B22 | ≥ 3 | ≥ 4 |
| B23 | ≥ 3 | ≥ 4 |
| B24 | ≥ 3 | ≥ 4 |
| B25 | ≥ 3 | ≥ 4 |
| B26 | ≥ 3 | ≥ 4 |
| B27 | ≥ 3 | ≥ 4 |
| B28 | ≥ 3 | ≥ 4 |
| B29 | ≥ 3 | ≥ 4 |
| B30 | ≥ 3 | ≥ 4 |
| B31 | ≥ 3 | ≥ 4 |

Biological target: T3, GST fusion of the EmAMA1-binding peptide of EmRON2 (Eimeria maxima, UniProt P08515 1-218 = GST)
T3 construct: Expressed in E. coli, purified as the other antigens but without TEV cleavage, so a His tag and TEV site probably remain; also called GST-RON2 peptide
Assay: phage ELISA, wells coated with GST-RON2 peptide

T3 sequence (P08515 1-218, tags or fused parts left off): as above

| Binder | binding relative to GST-coated wells [times] | binding relative to PBS-coated wells [times] |
| --- | --- | --- |
| B32 | ≥ 3 | ≥ 4 |
| B33 | ≥ 3 | ≥ 4 |
